Drawing on article PMC11342371, this text covers Kd and stoichiometry N for 1 substance.

Test [1] addresses human C-reactive protein (human) (UniProt P02741). Description: mass photometry; nanohole-PEG surface (10 ug cm^-2 of 100 nm SNPs), PBS pH 7.2, across different analyte concentrations (500 nM shown), at equilibrium; decamer to pentamers, KD = [monomer]^2/[dimer] with the pentamer as the monomer.
Test [2] has the same target. Description: native MS; 0.5, 1 and 7 uM, ammonium acetate; decamer to pentamers.
Test [3] has the same target. Nature of the test: mass photometry; in ammonium acetate; decamer to pentamers.

The term Kd denotes a measure of binding affinity in units of concentration. Lower therefore signals tighter binding. One may read the stoichiometry N as the number of molecules, sites or subunits per partner or assembly.

As to “human C-reactive protein (from UniProt P02741 19-224) (natural protein)”, the Kd in test [1] was 2600 nM; in test [2], 2460 nM; in test [3], 3400 nM. This substance also registered a stoichiometry N in test [1] of 10.
